Test results published in article PMC12661925 (Structure (London, England : 1993), 2025).
Read-outs that look alike come from different tables or passages of the source.

T1: Cas1-2/3 integrase (StrepII-Cas1 + Cas2/3 fusion) (Pseudomonas aeruginosa PA14, UniProt Q02ML7;Q02ML8 1-324;1-1076)
T1 sequence 1: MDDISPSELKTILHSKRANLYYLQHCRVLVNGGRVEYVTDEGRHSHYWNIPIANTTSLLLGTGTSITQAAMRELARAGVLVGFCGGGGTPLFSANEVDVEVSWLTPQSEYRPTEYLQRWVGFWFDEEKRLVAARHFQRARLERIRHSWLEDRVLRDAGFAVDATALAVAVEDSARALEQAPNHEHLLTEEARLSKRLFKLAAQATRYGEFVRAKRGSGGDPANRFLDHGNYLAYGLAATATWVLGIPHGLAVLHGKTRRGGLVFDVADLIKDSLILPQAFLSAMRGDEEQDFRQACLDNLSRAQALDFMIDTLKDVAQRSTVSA
T1 sequence 2: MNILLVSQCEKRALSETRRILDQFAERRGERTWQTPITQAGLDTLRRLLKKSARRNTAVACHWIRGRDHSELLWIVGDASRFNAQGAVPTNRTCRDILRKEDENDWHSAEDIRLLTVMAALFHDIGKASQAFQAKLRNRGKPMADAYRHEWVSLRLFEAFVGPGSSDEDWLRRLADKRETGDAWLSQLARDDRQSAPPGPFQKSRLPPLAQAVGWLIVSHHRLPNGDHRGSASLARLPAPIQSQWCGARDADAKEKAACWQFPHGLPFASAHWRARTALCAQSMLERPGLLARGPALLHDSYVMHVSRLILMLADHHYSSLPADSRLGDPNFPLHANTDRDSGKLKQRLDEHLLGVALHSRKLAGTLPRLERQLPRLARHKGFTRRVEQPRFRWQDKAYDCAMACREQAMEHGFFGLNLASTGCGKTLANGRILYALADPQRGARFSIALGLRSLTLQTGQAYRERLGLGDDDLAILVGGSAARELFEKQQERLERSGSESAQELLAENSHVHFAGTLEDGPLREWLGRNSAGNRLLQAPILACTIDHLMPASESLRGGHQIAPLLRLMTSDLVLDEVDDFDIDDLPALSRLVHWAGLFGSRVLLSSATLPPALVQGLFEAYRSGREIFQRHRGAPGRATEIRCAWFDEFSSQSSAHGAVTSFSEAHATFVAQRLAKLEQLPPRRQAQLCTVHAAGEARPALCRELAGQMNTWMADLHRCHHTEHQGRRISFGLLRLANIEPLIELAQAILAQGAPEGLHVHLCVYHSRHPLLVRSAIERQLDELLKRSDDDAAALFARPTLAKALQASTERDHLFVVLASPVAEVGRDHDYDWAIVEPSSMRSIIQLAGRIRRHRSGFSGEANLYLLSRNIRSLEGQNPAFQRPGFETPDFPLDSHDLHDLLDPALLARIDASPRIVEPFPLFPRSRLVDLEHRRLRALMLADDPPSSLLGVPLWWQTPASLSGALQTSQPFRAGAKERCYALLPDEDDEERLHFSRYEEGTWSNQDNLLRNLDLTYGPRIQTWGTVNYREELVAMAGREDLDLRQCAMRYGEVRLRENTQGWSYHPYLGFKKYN

B1: Figure 4 foreign DNA with PAM (34/34 nt) (dsDNA)
DNA 1: TACATGCTCTAGCAAAACGACTTGCACAACGAGG
DNA 2: CCATTAAGTGCAAGTCGTTTTGCTAGAGCTACAT
B2: Cas1 from the PA14 strain of Pseudomonas aeruginosa (type I-F), StrepII-tagged (enzyme, Pseudomonas aeruginosa (strain PA14))
chain: MDDISPSELKTILHSKRANLYYLQHCRVLVNGGRVEYVTDEGRHSHYWNIPIANTTSLLLGTGTSITQAAMRELARAGVLVGFCGGGGTPLFSANEVDVEVSWLTPQSEYRPTEYLQRWVGFWFDEEKRLVAARHFQRARLERIRHSWLEDRVLRDAGFAVDATALAVAVEDSARALEQAPNHEHLLTEEARLSKRLFKLAAQATRYGEFVRAKRGSGGDPANRFLDHGNYLAYGLAATATWVLGIPHGLAVLHGKTRRGGLVFDVADLIKDSLILPQAFLSAMRGDEEQDFRQACLDNLSRAQALDFMIDTLKDVAQRSTVSA
B3: Cas2/3 fusion protein from the PA14 strain of Pseudomonas aeruginosa (type I-F), untagged (enzyme, Pseudomonas aeruginosa (strain PA14))
chain: MNILLVSQCEKRALSETRRILDQFAERRGERTWQTPITQAGLDTLRRLLKKSARRNTAVACHWIRGRDHSELLWIVGDASRFNAQGAVPTNRTCRDILRKEDENDWHSAEDIRLLTVMAALFHDIGKASQAFQAKLRNRGKPMADAYRHEWVSLRLFEAFVGPGSSDEDWLRRLADKRETGDAWLSQLARDDRQSAPPGPFQKSRLPPLAQAVGWLIVSHHRLPNGDHRGSASLARLPAPIQSQWCGARDADAKEKAACWQFPHGLPFASAHWRARTALCAQSMLERPGLLARGPALLHDSYVMHVSRLILMLADHHYSSLPADSRLGDPNFPLHANTDRDSGKLKQRLDEHLLGVALHSRKLAGTLPRLERQLPRLARHKGFTRRVEQPRFRWQDKAYDCAMACREQAMEHGFFGLNLASTGCGKTLANGRILYALADPQRGARFSIALGLRSLTLQTGQAYRERLGLGDDDLAILVGGSAARELFEKQQERLERSGSESAQELLAENSHVHFAGTLEDGPLREWLGRNSAGNRLLQAPILACTIDHLMPASESLRGGHQIAPLLRLMTSDLVLDEVDDFDIDDLPALSRLVHWAGLFGSRVLLSSATLPPALVQGLFEAYRSGREIFQRHRGAPGRATEIRCAWFDEFSSQSSAHGAVTSFSEAHATFVAQRLAKLEQLPPRRQAQLCTVHAAGEARPALCRELAGQMNTWMADLHRCHHTEHQGRRISFGLLRLANIEPLIELAQAILAQGAPEGLHVHLCVYHSRHPLLVRSAIERQLDELLKRSDDDAAALFARPTLAKALQASTERDHLFVVLASPVAEVGRDHDYDWAIVEPSSMRSIIQLAGRIRRHRSGFSGEANLYLLSRNIRSLEGQNPAFQRPGFETPDFPLDSHDLHDLLDPALLARIDASPRIVEPFPLFPRSRLVDLEHRRLRALMLADDPPSSLLGVPLWWQTPASLSGALQTSQPFRAGAKERCYALLPDEDDEERLHFSRYEEGTWSNQDNLLRNLDLTYGPRIQTWGTVNYREELVAMAGREDLDLRQCAMRYGEVRLRENTQGWSYHPYLGFKKYN
B4: Figure 3 foreign DNA, PAM on one strand (34/32 nt) (dsDNA)
DNA 1: AAAAACCTGGACTACTACAACCTTCGCTTTTTGG
DNA 2: TTTTTGCGAAGGTTGTAGTAGTCCAGGAAAAA
B5: Figures 4 and 5 foreign DNA without PAM (32/32 nt) (dsDNA)
DNA 1: TACATGCTCTAGCAAAACGACTTGCACAACGA
DNA 2: ATTAAGTGCAAGTCGTTTTGCTAGAGCTACAT

Tests used:
[1] = biological target: T1, Cas1-2/3 integrase (StrepII-Cas1 + …); assay: cryo-EM
cryo-EM structure = biological target: the molecule itself; assay: cryo-EM structure
[2] = biological target: T1, Cas1-2/3 integrase (StrepII-Cas1 + …); assay: cryo-EM; remark: listed apart in the source

Binder	binding result [1]	binding result (cryo-EM structure)	other results
B1	binds		
B2		binds	
B3		binds	
B4			binding result [2]: binds
B5	binds		
